Patent publication US20220298475A1

Key:
[1] = target: LCMV Gp61-80 peptide … presented by MHC-II of dendritic cells (lymphocytic choriomeningitis virus (LCMV)); assay: cell-based or functional assay
[2] = target: SIINFEKL N4 peptide (OVA257-264) presented on MHC-I H-2Kb of dendritic cells (mouse); assay: cell-based or functional assay

Chain of LCMV Gp61-80 peptide … presented by MHC-II of dendritic cells (lymphocytic choriomeningitis virus (LCMV)) (P07399 61-80): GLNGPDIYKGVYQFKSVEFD

Row | Substance | percentage of OT-II CD4+ T cells biotinylated by peptide-pulsed DC-FT [1] [%] | signal-to-background ratio of biotin labeling on OT-I CD8+ cells (iDC-FT pulsed with 10 nM peptide, flow cytometry) (ratio (signal:background)) [2] | signal-to-background ratio of biotin labeling on OT-I CD8+ cells (iDC-FT pulsed with 100 nM peptide, flow cytometry) (ratio (signal:background)) [2] | signal/background ratio of biotinylated OT-I CD8+ T cells, DC-FT made by Method 1 (background: DC-enzyme primed with LCMV GP33-41) [2] | signal/background ratio of biotinylated OT-I CD8+ T cells, DC-NHS-FT made by Method 2 (background: DC-enzyme primed with LCMV GP33-41) [2] | streptavidin-APC+ OT-I CD8+ cells, DC-FT made by Method 1 [2] [%] | streptavidin-APC+ OT-I CD8+ cells, DC-NHS-FT made by Method 2 [2] [%]
1 | TCR of OT-II CD4+ T cells, specific for the OVA323-339 peptide | 1.68 |  |  |  |  |  | 
2 | transgenic T cell receptor (TCR) of OT-I CD8+ T cells, specific for the SIINFEKL N4 of ovalbumin presented on MHC I |  | 10 | 66 | 592 | 9.2 | 77 | 16
